{
  "source": "patent US20190284241A1",
  "about": "(Affibody, published 2019)",
  "molecules": {"B1": {"name": "His6-tagged Z17348 (designed binder)", "chain": "MGSSHHHHHHLQAEAKYAKEQDAAAHEIRWLPNLTFDQRVAFIHKLARQPEQSSELLSEAKKLSESQAPK"}},
  "key": {"[1]": {"target": "human FcRn-eGFP on transduced HeLa cells (human) (UniProt P55899)", "sequence (P55899 24-365, chain 1 of 2)": "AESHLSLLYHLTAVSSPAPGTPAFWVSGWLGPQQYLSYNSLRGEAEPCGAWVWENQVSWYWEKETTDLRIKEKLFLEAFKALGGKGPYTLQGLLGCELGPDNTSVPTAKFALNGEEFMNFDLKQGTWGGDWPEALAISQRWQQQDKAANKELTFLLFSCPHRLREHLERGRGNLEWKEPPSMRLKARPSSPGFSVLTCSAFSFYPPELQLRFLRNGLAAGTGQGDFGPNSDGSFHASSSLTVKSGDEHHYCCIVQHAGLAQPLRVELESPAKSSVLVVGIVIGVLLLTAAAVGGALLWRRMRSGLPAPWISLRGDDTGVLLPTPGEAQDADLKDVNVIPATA", "sequence (b2m, as listed by the source, chain 2 of 2)": "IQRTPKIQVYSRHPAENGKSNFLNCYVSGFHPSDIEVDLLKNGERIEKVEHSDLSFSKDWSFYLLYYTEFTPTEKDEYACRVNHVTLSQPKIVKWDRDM", "test": "flow cytometry, hFcRn-eGFP HeLa cells, blocks Alexa647-hIgG, pH 6.0"}, "[2]": {"target": "human FcRn-eGFP on transduced HeLa cells (human) (UniProt P55899)", "test": "flow cytometry, hFcRn-eGFP HeLa cells, blocks Alexa647-hIgG, pH 6.0", "remark": "listed apart in the source"}, "[3]": {"target": "T1, human FcRn (Biorbyt, cat. no. orb84388) (human, UniProt P55899 24-297; P61769 21-119, limits assumed)", "T1 construct": "Bought soluble protein; not biotinylated on Biacore chips and ELISA coat; also called hFcRn", "test": "SPR Biacore, hFcRn immobilised; sample after 2 weeks at 37 °C (2 w)", "procedure": "(§1) The His₆-tagged Z variants were further assessed in terms of preserved binding capacity to FcRn after introduction of alterations in the scaffold, as well as after having been subjected to the stability test, i.e. incubated at 37° C. for 2 weeks. Comparative kinetic constants (kₒₙ and koff) and affinities (KD) were determined using a Biacore 2000 instrument. The target protein human FcRn (Biorbyt, cat. no. orb 84388) was immobilized on the carboxylated dextran layer surface of a CM5 chip (GE Healthcare). The immobilization was performed using amine coupling chemistry according to the manufacturer's protocol and using HBS-EP as running buffer. One flow cell surface on the chip was activated and deactivated for use as blank during analyte injections. The immobilization level of hFcRn on the surface was approximately 750 RU. […] Regeneration by three pulses of HBS-EP followed by 10 min equilibration in running buffer was applied after each analyte injection. Kinetic constants were calculated from the sensorgrams using the Langmuir 1:1 model of the BiaEvaluation software 4.1 (GE Healthcare). Curves of the blank surface were subtracted from the curves of the ligand surfaces and the data from the buffer cycles were subtracted from the data of the test-sample cycles to correct for any drift in signal.", "T1 sequence (P55899 24-297 limits assumed, chain 1 of 2)": "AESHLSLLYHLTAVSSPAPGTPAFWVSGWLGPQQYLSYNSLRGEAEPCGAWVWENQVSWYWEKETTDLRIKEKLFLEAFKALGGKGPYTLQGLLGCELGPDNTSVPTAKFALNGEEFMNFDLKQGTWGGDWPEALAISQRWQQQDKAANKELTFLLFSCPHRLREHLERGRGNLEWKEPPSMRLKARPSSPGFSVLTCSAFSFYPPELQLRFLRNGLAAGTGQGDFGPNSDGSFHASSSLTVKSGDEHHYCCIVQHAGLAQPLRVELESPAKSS", "T1 sequence (P61769 21-119 limits assumed, chain 2 of 2)": "as the sequence (b2m, as listed by the source, chain 2 of 2) above"}, "[4]": {"target": "T1, human FcRn (Biorbyt, cat. no. orb84388)", "test": "SPR Biacore, hFcRn immobilised; sample before the stability test (0)", "procedure": "as §1"}, "[5]": {"target": "T2, human FcRn (Biorbyt, cat. no. orb84388) (human, UniProt P55899 24-297; P61769 21-119, limits assumed)", "T2 construct": "Bought protein; also called hFcRn", "test": "ELISA screening; periplasm with the ABD moiety only captured on anti-ABD antibody, biotinylated hFcRn at 2 nM", "procedure": "After washing as described above, 50 μl ImmunoPure TMB substrate (Thermo Scientific, cat. no. 34021) was added to the wells and the plates were treated according to the manufacturer's recommendations.", "T2 sequence (P55899 24-297 limits assumed, chain 1 of 2)": "as the sequence (P55899 24-297 limits assumed, chain 1 of 2) above", "T2 sequence (P61769 21-119 limits assumed, chain 2 of 2)": "as the sequence (b2m, as listed by the source, chain 2 of 2) above"}},
  "note": "Where two headings read alike, the source gives them in different places.",
  "data": [
    {"molecule": "Subcutaneous immunoglobulin (SCIg; Gammanorm, Octapharma) (antibody)", "values": [
      {"measurement": "IC50", "setting": "[1]", "result": 120, "unit": "nM"}
    ]},
    {"molecule": "Intravenous immunoglobulin (IVIg; Octagam, Octapharma) (antibody)", "values": [
      {"measurement": "IC50", "setting": "[2]", "result": 150, "unit": "nM"},
      {"measurement": "IC50", "setting": "[1]", "result": 170, "unit": "nM"}
    ]},
    {"molecule": "B1", "values": [
      {"measurement": "Kd", "setting": "[3]", "result": 6.3, "unit": "nM"},
      {"measurement": "koff", "setting": "[3]", "result": 0.00809, "unit": "s⁻¹"},
      {"measurement": "kon", "setting": "[3]", "result": "1.28e+06", "unit": "M⁻¹ s⁻¹"},
      {"measurement": "Kd", "setting": "[4]", "result": 5.5, "unit": "nM"},
      {"measurement": "koff", "setting": "[4]", "result": 0.01, "unit": "s⁻¹"},
      {"measurement": "kon", "setting": "[4]", "result": "1.82e+06", "unit": "M⁻¹ s⁻¹"}
    ]},
    {"molecule": "LAEAKVLANRELDKYGVSDYYKNLINNAKTVEGVKALIDEILAALP (other, Streptococcus strain G148, UniProt P19909 254-299, looked up, domain: GA3)", "note": "[ABD moiety only (periplasm, negative control)]", "values": [
      {"measurement": "binding result", "setting": "[5]", "result": "no binding (tested: 2 nM)"}
    ]}
  ]
}
